Source: patent US20090203610A1, “METHODS OF TREATING OBESITY OR DIABETES USING NT-4/5” (RINAT NEUROSCIENCE CORPORATION, priority 2004, published 2009)

How the values were obtained:
Type in all cases: in vivo
db/db mice [1] = test: Co-administration of Mab 1241 with NT4/5 in db/db mice (Example 15); settings: NT4/5 2 mg/kg s.c. daily day 1-5; Mab 1241 5 mg/kg i.p. single on day 1
Description: Test animals: 32 Leptin receptor mutant db/db mice (BSK.Cg-m+/+Leprdb) obtained from Jackson Laboratory were used for the study. The mice were divided into four groups of 8 animals each (groups 1-4), with homogeneous initial body weight and glycemia values based on a randomization table. The mice were housed one per cage.
Anti-NT4/5 and NT4/5: Both anti-NT4/5 monoclonal antibody Mab 1241 and human NT4/5 were obtained from Genentech. […] (data not shown).
Administration of Mab 1241 and NT4/5: On day one, mice in groups 1-4 were treated with vehicle (PBS) subcutanouesly (s.c.), 5 mg/kg Mab 1241 intraperitioneally (i.p.), 5 mg/kg Mab 1241 intraperitioneally (i.p.) plus 2 mg/kg NT4/5 subcutanouesly (s.c.), and 2 mg/kg NT4/5 subcutanouesly (s.c.), respectively. On day 2 through day 5, group 1 was treated with a daily dose of vehicle (PBS) subcutanouesly (s.c.). Groups 3 and 4 were treated with a daily dose of 2 mg/kg NT4/5 subcutanouesly (s.c.).
Baseline non-fasted blood glucose level was measured by One-Touch Ultra glucose meter from the tail bleed.

DIO mice [2] = test: Body weight and food intake in high fat diet-induced obese (DIO) mice (Example 5); settings: 2 and 10 mg/kg s.c.; P<0.001; dose dependent
Protocol: Test animals: Mice with diet induced obesity (DIO) from Jackson Laboratory were used in this study. El-Haschimi, J. Clin. Invest. 105:1827-1832 (2000); Steppan, Nature 409:307-312 (2001). 23 male C57BL/6J mice were weaned at 4 weeks of age. Immediately after weaning they were put on about 58% high fat diet ([…], Research Diet) through out the study. The DIO mice at 13 weeks of age weighing in the range of 28-40 g were used in this study. Older mice at 22-24 weeks of age were also used.
Administration of NT-4/5: NT-4/5 used in this study was obtained from Genentech. The mice were divided into 3 groups of equivalent body weight and baseline blood glucose distribution (7-8 mice per group). Each group received from day 1 to day 5, from day 8 to day 12, from day 15 to 16 a daily subcutaneous dose of either vehicle, 2 mg/kg or 10 mg/kg of NT-4/5, respectively. Five days prior to the treatment started (day −5), a baseline blood samples were collected for measuring glucose and triglyceride. Subsequent to the treatment started (day 1), blood glucose and triglyceride were measured once a week. Body weight, food intake were monitored 5 days per week through out the entire study. […] They were fasted overnight (for 16 hours) before fasting glucose levels were measured and the oral glucose tolerance test was conducted with a load of 2 grams of glucose/kg of body weight.

db/db mice [3] = test: Body weight and food intake, daily s.c. dosing day 1 to 30 in db/db mice (Example 2)
Protocol: Female db/db mice (12 weeks old) were divided into three groups and were subcutaneously injected with vehicle (PBS) or NT-4/5 at doses of 5 mg/kg, or 20 mg/kg daily from day 1 to day 30. […] Food intake was reduced to about 20% of the vehicle group level after 10 days of administration of NT-4/5 at 20 mg/kg and was maintained at that level until day 30. Food intake was returned to about the same level as the vehicle group about 12 days after stop of treatment.

db/db mice [4] = test: Long term glucose control in db/db mice (Example 14)
Protocol: Db/db mice maintained as described in Example 1 were divided into five groups (groups 1-5). Group 1 were administered with vehicle (PBS). Group 2, group 3, group 4, group 5 were each administered with NT-4/5 at the doses of 2 mg/kg, 5 mg/kg, 10 mg/kg, and 20 mg/kg, respectively. Both the vehicle and NT-4/5 were administered to each group of the mice subcutaneously once daily from day 1 to day 26. One day before beginning the treatment (day 0), blood samples were collected from the mice as described previously for the determination of baseline levels of serum biomarkers (glucose and insulin). On day 45, HbA1c level was measured. Glucose tolerance test was performed on day 54 (28 days after the last dose of NT-4/5 treatment). Intraperitoneal (IP) glucose tolerance test was conducted by fasting the mice overnight (16 hours) before giving them an IP injection of a load of 2 grams of glucose/kg of body weight. Serum glucose and insulin were also measured.

DIO mice [5] = test: NT-4/5 versus BDNF on body weight and food intake of DIO mice (Example 10)
Description: Test animals: Mice with diet induced obesity (DIO) were used in this study. 22 male C57BL/6J mice were weaned at 4 weeks of age. Immediately after weaning they were put on 58% high fat diet (D12331i, Research Diet) through out the study. The DIO mice at 13 weeks of age weighing in the range of 28-40 g were used in this study.
Administration of NT-4/5 and BDNF: NT-4/5 was produced was produced as described in U.S. Pat. No. 6,184,360. The recombinant human BDNF was obtained from PeproTech Inc. (Rocky Hill, N.J.).
The mice were divided into 3 groups of equivalent body weight distribution (7-8 mice per group). Each group received 2 weekly intravenous doses of either vehicle, 2 mg/kg of NT-4/5 or 2 mg/kg of BDNF, respectively. Body weight and food intake were taken the day before treatment started (day 0) and followed subsequently on a daily basis.

[6] = tested on: NONcNZO-10 polygenic obese and diabetic mice; test: Body weight and food intake in NONcNZO-10 mice (Example 3)
Description: Test animals: 19 male NONcNZO-10 polygenic obese and diabetic mice from Jackson Laboratory (See Leiter et al., Diabetes 53 (Suppl. 1): S4-S11, 2004) at 9 weeks of age weighing in the range of 28-35 g were used in this study.
Administration of NT-4/5: NT-4/5 was obtained from Genentech Inc.
The mice were divided into 3 groups of equivalent body weight and baseline glucose distribution (6-7 mice per group). […] Seven days before starting the treatment (day −7), blood samples were collected from the mice as described previously for the determination of baseline levels of blood glucose and triglyceride. After the treatment started, blood samples were collected weekly to determine glucose and triglyceride levels as described in previous examples. Body weight and food intake were monitored 5 days a week through out the entire study.

[7] = weekly intravenous injection, 2 mg/kg
[8] = 2 or 10 mg/kg s.c. daily, dose dependent

B1: NT-4/5: mature human neurotrophin-4/5 (SEQ ID NO:1), obtained from Genentech or produced in E. coli (protein, listed as Homo sapiens)
chain: GVSETAPASRRGELAVCDAVSGWVTDRRTAVDLRGREVEVLGEVPAAGGSPLRQYFFETRCKADNAEEGGPGAGGGGCRGVDRRHWVSECKAKQSYVRALTADAQGRVGWRWIRIDTACVCTLLSRTGRA
db/db mice [1]
  body weight: small, but statistically insignificant reduction in body weight
  food intake: significantly reduced food intake on day 8 and day 10
  non-fasted glucose level: reduced non-fasted glucose level only on day 9, but not on day 4
DIO mice [2]
  body weight: significantly reduced
  food intake: significantly reduced
db/db mice [3]; 20 mg/kg, after 10 days of administration, maintained until day 30
  food intake, % of the vehicle group level: about 20%
db/db mice [3]; 5 or 20 mg/kg s.c. daily day 1 to 30
  body weight: reduced body weight in a dose dependent manner
db/db mice [3]; mouse, in vivo
  time after stop of treatment until food intake returned to vehicle group level: about 12 days
db/db mice [4]; 10 mg/kg/d, day 6, P<0.05
  serum insulin levels: significant reduction
db/db mice [4]; 20 mg/kg/d, day 6 and day 14, P<0.05
  serum insulin levels: significant reduction
db/db mice [4]; all treatment groups, remained low until day 29
  non-fasting serum glucose level reduction: more than 50%
db/db mice [4]; day 45 (15 days post-dose), 2, 5, 10 and 20 mg/kg s.c. daily day 1 to 26
  HbA1c levels versus vehicle: significantly lower than the vehicle group
db/db mice [4]; day 54, 28 days after the last dose
  glucose tolerance: significantly improved glucose tolerance
DIO mice [5]; 2 mg/kg i.v.
  body weight on day 2: reduced body weight significantly
  food intake on day 2: reduced food intake significantly
DIO mice [5]; [7]
  body weight: reduced the body weight more effectively than that of BDNF
  food intake: reduced the food intake more effectively than that of BDNF
[6]; [8]
  body weight: reduced body weight
  food intake: reduced
[6]; 30 days after the treatment was terminated
  rebound hyperphagia or rebound body weight gain: No rebound hyperphagia or rebound body weight gain/overshoot was observed
